Measurements from publication PMC6662825, “The MTR4 helicase recruits nuclear adaptors of the human RNA exosome using distinct arch-interacting motifs” (Nature Communications, 2019).

Molecular target: T1, GST-MTR4∆N R743E (human, UniProt P42285 75-1042, R743E)
T1 construct: also called R743E mutant; source: E. coli BL21 star (DE3), purified (Ni-NTA, heparin, SEC); not shown: 6xHis-GST, N-terminal, kept
T1 sequence (looked up): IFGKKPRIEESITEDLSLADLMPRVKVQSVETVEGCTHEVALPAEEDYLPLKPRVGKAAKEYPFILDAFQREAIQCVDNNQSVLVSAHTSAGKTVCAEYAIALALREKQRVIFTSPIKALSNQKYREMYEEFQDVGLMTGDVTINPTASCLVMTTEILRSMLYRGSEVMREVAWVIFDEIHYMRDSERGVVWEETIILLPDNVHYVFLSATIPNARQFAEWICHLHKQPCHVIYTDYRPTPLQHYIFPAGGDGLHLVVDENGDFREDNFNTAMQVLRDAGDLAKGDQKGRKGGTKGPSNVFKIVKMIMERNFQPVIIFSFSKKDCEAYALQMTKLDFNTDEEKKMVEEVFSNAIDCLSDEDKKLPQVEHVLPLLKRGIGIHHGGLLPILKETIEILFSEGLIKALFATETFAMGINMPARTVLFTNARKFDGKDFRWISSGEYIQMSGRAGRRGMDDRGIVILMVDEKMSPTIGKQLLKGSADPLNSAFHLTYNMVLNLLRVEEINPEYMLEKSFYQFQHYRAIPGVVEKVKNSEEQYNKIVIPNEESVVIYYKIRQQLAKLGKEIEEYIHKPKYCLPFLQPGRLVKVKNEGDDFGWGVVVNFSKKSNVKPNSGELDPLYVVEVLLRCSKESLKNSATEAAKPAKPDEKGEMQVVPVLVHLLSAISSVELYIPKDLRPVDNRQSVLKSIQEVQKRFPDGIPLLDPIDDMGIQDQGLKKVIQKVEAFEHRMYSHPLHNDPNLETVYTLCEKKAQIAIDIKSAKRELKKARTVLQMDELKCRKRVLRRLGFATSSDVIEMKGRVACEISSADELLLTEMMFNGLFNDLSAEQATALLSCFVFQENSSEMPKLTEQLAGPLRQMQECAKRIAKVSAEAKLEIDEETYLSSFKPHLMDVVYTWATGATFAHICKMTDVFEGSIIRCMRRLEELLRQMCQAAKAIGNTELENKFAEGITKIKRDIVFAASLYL
Assay: pull-down; GST-tagged MTR4 constructs as bait, Trx-NVL constructs as prey, glutathione sepharose; 10 μM GST-MTR4∆N with 20 μM Trx-NVL constructs; 50 mM Hepes pH 7.5, 150 mM NaCl, 5% glycerol, 0.05% NP40, 1 mM DTT, 30 min at 4 °C; SDS-PAGE, Coomassie
Settings: both partners purified

B1: Trx-NVL^167–216 (domain or fragment, human, UniProt O15381 167-216, looked up)
chain: KDSEGGWFIDKTPSVKKDSFFLDLSCEKSNPKKPITEIQDSKDSSLLESD
notes: source: E. coli BL21 star (DE3), purified (Ni-NTA, SEC); not shown: 6xHis-Trx, N-terminal, kept
B1: binds.
